Test results published in patent US8329168.

Test system: Met-SC1-325-His-6 (fragment comprising residues 1-325 of staphylocoagulase with an additional Met at the NH2 terminus and a His tag fused to the COOH terminus)

IIQ320 (recombinant human prothrombin containing Gln in place of Arg-320)
conformational activation (initial rates of S2238 hydrolysis): Conformational activation of IIQ320 and its covalent inactivation with FPR-CH2Cl was accomplished by the addition of 43 µM Met-SC1-325-His-6
